Experimental data from US20090010911A1, “METHODS AND COMPOSITIONS FOR AFFECTING CYCLOPHILIN A REGULATION OF KINASES IN MODULATING CELLULAR ACTIVITIES” (IOWA STATE UNIVERSITY RESEARCH FOUNDATION, INC., priority 2007, published 2009).

T1: Itk kinase domain (Mus musculus, UniProt Q03526)
T1 construct: Purified 0.5 μM FLAG-tagged Itk kinase domain (Itk KD) immobilized on an anti-FLAG-resin; made in house; host or cells: Sf9 insect cells (baculovirus)
T1 sequence (Q03526 368-620 limits assumed): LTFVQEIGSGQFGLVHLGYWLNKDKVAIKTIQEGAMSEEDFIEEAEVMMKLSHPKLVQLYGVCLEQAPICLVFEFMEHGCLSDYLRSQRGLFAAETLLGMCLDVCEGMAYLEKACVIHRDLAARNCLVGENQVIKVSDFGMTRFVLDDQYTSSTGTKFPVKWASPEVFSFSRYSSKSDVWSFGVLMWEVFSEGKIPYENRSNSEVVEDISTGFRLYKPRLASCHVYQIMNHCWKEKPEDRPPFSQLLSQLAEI

B1: PLCγ1 SH2C domain: isolated carboxy-terminal SH2 domain of PLCγ1 (protein)
chain: QTNAHESKEWYHASLTRAQAEHMLMRVPRDGAFLVRKRNEPNSYAISFRAEGKIKHCRVQQEGQTVMLGNSEFDSLVDLISYYEKHPLYRKMKLRYPI
B2: Itk SH2 domain: isolated exogenous SH2 domain of Itk, purified from bacteria (protein)
chain: EWYNKSISRDKAEKLLLDTGKEGAFMVRDSRTPGTYTVSVFTKAIISENPCIKHYHIKETNDSPKRYYVAEKYVFDSIPLLIQYHQYNGGGLVTRLRYPVCSWRQKA

Molecular target: T1, Itk kinase domain
Assay: Pull-down assay of SH2 domains with Itk kinase domain
Assay type: binding
Conditions: purified tagged proteins
Description: 3(a) Empty anti-FLAG resin (lane 1) or purified FLAG-tagged Itk kinase domain (Itk KD) immobilized on an anti-FLAG-resin (lanes 2 and 3) were incubated with purified myc-tagged control protein (lane 2) or myc-tagged Itk SH2 domain (lanes 1 and 3) in a pull-down assay. […] 3(b) Purified FLAG-tagged Itk KD (lane 1) was incubated with GST (lane 2) or GST-PLCγ1 C-terminal SH2 domain (GST-PLCγ1 SH2C) (lane 3) each immobilized on glutathione beads in a pull-down assay. […] One μM Itk 32 (lanes 1 and 3) or Itk 32 (R265K) (lanes 2 and 4), were incubated with 250 nM FLAG-tagged full-length Itk in an in vitro kinase assay. Lanes 1 and 2 are no enzyme control. […] One, 3, 5 and 10 μM PLCγ1 SH2C-Y783- (d) or PLCγ1 SH2C(R964A,R696A)-Y783- 3(e), were subjected to phosphorylation by 1.2 μM full-length FLAG-tagged Itk. Lanes 5 and 6 (containing 1 and 10 μM substrate, respectively) are no enzyme controls. Coomassie stain of the gels and anti-FLAG blots (bottom panels) show protein levels. (f & g) Interaction between the SH2 domain and Itk kinase domain is independent of the phosphorylation status of the kinase domain. […] Itk KD that is co-expressed with Lck but also pretreated with alkaline phosphatase is not phosphorylated (lane 3). […]

Row | Molecule | interaction with Itk kinase domain (pull-down)
1 | B1 | interacts directly
2 | B2 | interacts directly
